# Experimental data taken from IntAct's records for PubMed 15582318.
# B1: Telethonin (Homo sapiens), O15273 (parent)
# chain: MATSELSCEVSEENCERREAFWAEWKDLTLSTRPEEGCSLHEEDTQRHETYHQQGQCQVLVQRSPWLMMRMGILGRGLQEYQLPYQRVLPLPIFTPAKMGATKEEREDTPIQLQELLALETALGGQCVDRQEVAEITKQLPPVVPVSKPGALRRSLSRSMSQEAQRG
# B2: Telethonin (Homo sapiens), O15273 (parent)
# chain: B1 chain
# partner: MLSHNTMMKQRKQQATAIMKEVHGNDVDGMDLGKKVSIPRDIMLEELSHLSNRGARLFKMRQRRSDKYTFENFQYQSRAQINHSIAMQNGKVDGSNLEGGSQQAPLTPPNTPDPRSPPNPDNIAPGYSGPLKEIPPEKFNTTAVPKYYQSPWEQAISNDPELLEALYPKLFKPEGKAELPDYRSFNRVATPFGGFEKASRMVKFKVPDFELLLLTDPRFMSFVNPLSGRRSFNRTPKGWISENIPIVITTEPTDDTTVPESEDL
# Variants of: B1
# Settings: with titin_human TTN
row,Variant,effect of a mutation on the interaction
1,MATSELSCEVSEENCERREAFWAEWKDLTLSTRPEEGCSLHEEDTQRHETYHQQGQCQVLVQRSPWLMMRMGILGRGLQEYQLPYQRVLPLPIFTPAKMGATKEEREDTPIQLQELLALETALGGQCVDRQEVAEITKQLPPVVPVSKPGALHRSLSRSMSQEAQRG,increasing interaction strength
2,MATSELSCEVSEENCERREAFWAEWKDLTLSTRPEEGCSLHEEDTQRHETYHQQGQCQVLVQRSPWLMMRMGILGRGLQEYQLPYQRVLPLPIFTPAKMGATKEEREDTPIQLQELLALETALGGQCVDRQEVAEIIKQLPPVVPVSKPGALRRSLSRSMSQEAQRG,increasing interaction strength
3,MATSELSCEVSEENCERREAFWAEWKDLTLSTRPEEGCSLHEEDTQRHETYHQQGQCQVLVQRSPWLMMRMGILGRGLQEYQLPYQQVLPLPIFTPAKMGATKEEREDTPIQLQELLALETALGGQCVDRQEVAEITKQLPPVVPVSKPGALRRSLSRSMSQEAQRG,decreasing interaction strength
4,MATSELSCEVSEENCERREAFWAEWKDLTLSTRPEEGCSLHEEDTQRHETYHQQGQCQVLVQRSPWLMMRMGILGRGLQEYQLPYQRVLPLPIFTPAKMGATKEEREDTPIQLQELLALETALGGQCVDRQQVAEITKQLPPVVPVSKPGALRRSLSRSMSQEAQRG,decreasing interaction strength

# Variants of: B1
# Settings: with csrp3_human CSRP3, P50461
# csrp3_human CSRP3, P50461, sequence (P50461 whole entry): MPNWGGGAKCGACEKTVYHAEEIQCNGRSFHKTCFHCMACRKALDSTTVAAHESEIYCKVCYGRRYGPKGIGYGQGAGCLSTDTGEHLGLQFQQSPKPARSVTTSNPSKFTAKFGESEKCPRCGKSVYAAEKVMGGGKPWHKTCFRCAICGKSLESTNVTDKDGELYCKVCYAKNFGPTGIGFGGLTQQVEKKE
row,Variant,effect of a mutation on the interaction
1,MATSELSCEVSEENCERREAFWAEWKDLTLSTRPEEGCSLHEEDTQRHETYHQQGQCQVLVQRSPWLMMRMGILGRGLQEYQLPYQQVLPLPIFTPAKMGATKEEREDTPIQLQELLALETALGGQCVDRQEVAEITKQLPPVVPVSKPGALRRSLSRSMSQEAQRG,decreasing interaction strength
2,MATSELSCEVSEENCERREAFWAEWKDLTLSTRPEEGCSLHEEDTQRHETYHQQGQCQVLVQRSPWLMMRMGILGRGLQEYQLPYQRVLPLPIFTPAKMGATKEEREDTPIQLQELLALETALGGQCVDRQQVAEITKQLPPVVPVSKPGALRRSLSRSMSQEAQRG,decreasing interaction strength

# Variants of: B2
# Settings: with myoz2_human MYOZ2, Q9NPC6
row,Variant,effect of a mutation on the interaction
1,MATSELSCEVSEENCERREAFWAEWKDLTLSTRPEEGCSLHEEDTQRHETYHQQGQCQVLVQRSPWLMMRMGILGRGLQEYQLPYQQVLPLPIFTPAKMGATKEEREDTPIQLQELLALETALGGQCVDRQEVAEITKQLPPVVPVSKPGALRRSLSRSMSQEAQRG,decreasing interaction strength
2,MATSELSCEVSEENCERREAFWAEWKDLTLSTRPEEGCSLHEEDTQRHETYHQQGQCQVLVQRSPWLMMRMGILGRGLQEYQLPYQRVLPLPIFTPAKMGATKEEREDTPIQLQELLALETALGGQCVDRQEVAEITKQLPPVVPVSKPGALHRSLSRSMSQEAQRG,increasing interaction strength
3,MATSELSCEVSEENCERREAFWAEWKDLTLSTRPEEGCSLHEEDTQRHETYHQQGQCQVLVQRSPWLMMRMGILGRGLQEYQLPYQRVLPLPIFTPAKMGATKEEREDTPIQLQELLALETALGGQCVDRQEVAEIIKQLPPVVPVSKPGALRRSLSRSMSQEAQRG,increasing interaction strength
4,MATSELSCEVSEENCERREAFWAEWKDLTLSTRPEEGCSLHEEDTQRHETYHQQGQCQVLVQRSPWLMMRMGILGRGLQEYQLPYQRVLPLPIFTPAKMGATKEEREDTPIQLQELLALETALGGQCVDRQQVAEITKQLPPVVPVSKPGALRRSLSRSMSQEAQRG,decreasing interaction strength
